According to publication PMC5275738:

Target: SF3b145(598–631) fragment, tag-free recombinant (isotope-labeled) (human) (UniProt Q13435)
Test: NMR titration

UniProt Q13435, sequence (Q13435 598-631): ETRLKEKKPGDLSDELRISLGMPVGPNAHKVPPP

- Kd: 50 µM
Substance: human SF3b49 RRM1 (Pro5–Leu96), tag-free (from UniProt Q15427 5-96) (domain or fragment)
